# Experimental data: patent US9273099 (Dana-Farber, dated 2016)
# Where no end group is shown, it is not given here. The star is where a group is joined. FITC = O=C1OC2(c3ccc(O)cc3Oc3cc(O)ccc32)c2ccc(NC(=S)*)cc21; βAla = NCCC(=O)O
# Assays:
# [1] = target: C-terminal deleted GST-BCL-2 (UniProt P10415); assay: fluorescence polarization binding
# [2] = target: C-terminal deleted GST-BCL-2 (UniProt P10415); assay: fluorescence polarization, displacement of prebound FITC-BID BH3 from BCL-2
# [3] = target: C-terminal deleted GST-BCL-2 (UniProt P10415); assay: direct fluorescence polarization, 25 nM fluoresceinated peptide with GST-BCL2 25-1000 nM
# [4] = target: C-terminal deleted GST-BCL-2 (UniProt P10415); assay: direct fluorescence polarization
# [5] = target: C-terminal deleted GST-BCL-2 (UniProt P10415); assay: fluorescence polarization competitive binding, FITC-BID BH3 as competitor
# [6] = target: C-terminal deleted GST-BCL-2 (UniProt P10415); assay: fluorescence polarization, displacement of FITC-BID BH3 from BCL-2
# [7] = target: C-terminal deleted GST-BCL-2 (UniProt P10415); assay: fluorescence polarization direct binding
# [8] = target: T1, Full-length BAX protein (UniProt Q07812 1-192, limits assumed); assay: BAX fluorescence polarization direct binding assay
# T1 construct: mature
# T1 sequence (Q07812 whole entry): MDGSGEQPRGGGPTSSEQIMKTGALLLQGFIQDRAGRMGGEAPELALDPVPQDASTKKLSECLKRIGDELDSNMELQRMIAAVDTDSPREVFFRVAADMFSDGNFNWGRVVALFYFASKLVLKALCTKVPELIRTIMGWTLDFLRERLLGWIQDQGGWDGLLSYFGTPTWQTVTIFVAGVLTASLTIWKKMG
# Method: Binding activity was measured by fluorescence polarization on a Perkin-Elmer LS50B luminescence spectrophotometer. KD values were determined by nonlinear regression analysis using Prism software (Graphpad).
molecule,measurement,setting,value
BAD BH3 domain peptide (from UniProt Q92934 103-127),Kd,[1],41 nM
same,IC50,[2],173 nM
FITC-SAHB3BID(G→E)A (peptide),Kd,[3],483 nM
FITC-SAHB3BIDA (peptide),fold enhancement in binding affinity against unmodified BID BH3,[4],> 6 fold
same,fold enhancement in binding affinity against unmodified BID BH3 peptide,[4],6 fold
same,Kd,[3],38.8 nM
SAHB3BID(tr)B (16-mer) (peptide),fold drop against the 23-mer SAHB3BIDB,[5],> 6 fold
SAHB3BIDA (unlabeled) (peptide),IC50,[6],62 nM
same,fold increase in displacement potency against unmodified BID BH3 peptide,[6],> 13 fold
"{FITC-βAla}-EDIIRNIARHLAQVGDSMDRSI (peptide, UniProt P55957 80-101, looked up, domain: BH3; also called FITC-BID BH3; FITC-labeled BID BH3 peptide) [FITC-labeled unmodified BID BH3 peptide]",Kd,[7],220 nM
same,binding result,[8],no binding
